The text below walks through data of the nanobody polyreactivity screen of Harvey et al. (2022).

The data set is described as follows: yeast display, Sf9 membrane polyspecificity reagent, FACS + sequencing; frameworks hold sequencing errors. A digest of the protocol: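 A nanobody's polyreactivity label depends on the gate it was sorted from. Yeast display cells were stained with 10% biotinylated, detergent-solubilized Sf9 membrane reagent for 1 hour at 4 °C, enriched on streptavidin microbeads and sorted by FACS. The low and high (top ~1%) gates were set on anti-HA fluorescence for expression and streptavidin fluorescence for reagent binding.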
For “QVQLVESGGGLVQAGGSLRLSCAASGSTFDAYAMGWCRQAPGTERELVAAITNAGSTNYADSVKGRFTISRDNAKNTVYLQMNSLKPEDTAVYYCATDWYHRYLDGRYDYWVQGTQVTVSS”, the “polyreactivity (PSR sort gate)” value is listed as “low polyreactivity”.

In the case of “QVQLVESGGGLVQAGGSLRLSCAASGSTFDDYAMGWYRQAPGKERELVAAIYWSSGRTYYADSVKGRFTISRDNAKNTVYLQMNSLKPEDTAVYYCAARNRYDRLRYYYWGQGTQVTVSS”, the “polyreactivity (PSR sort gate)” value is “high polyreactivity”.

For the sequence “QVQLVESGGGLVQAGGSLRLSCAASGSTFDENAMGWYRQAPGKERELVAVISDSGGSTYYADSVKGRFTISRDNAKNTVDLQMNSLKPEVTAVYYCAKDVPPEYPTSSYDYWGQGTQVTVSS”, the “polyreactivity (PSR sort gate)” value is on record as “low polyreactivity”.

For “QVQLVESGGGLVQAGGSLRLSCAASGSTFDFNAMGWYRQAPGKERELVAAITGSDGNTYYADSVKGRFTISRDNAKNTVYLQMNSLKPEDTAVYYCAADFSWWSKYVVLYDYWGQGTQVTVSS”, the “polyreactivity (PSR sort gate)” value is “low polyreactivity”.

“QVQLVESGGGLVQAGGSLRLSCAASGSTFDFYAMAWYRQAPGKERELVADITSGGRTSYADSVKGRFTISRDNAKNTVYLQMNSLKPEDTAVYYCAALTRWYAWYDYWGQGTQVTVSS”: the “polyreactivity (PSR sort gate)” value is listed as “high polyreactivity”.

“QVQLVESGGGLVQAGGSLRLSCAASGSTFDGYAMGWYRQAPGKERELVAAISASGGSTYYADSVKGRFTISRDNAKNTVYLQMNSLKPEDTAVYYCAAQVRYLCYRYDYWGQGSQVTVSS”: the “polyreactivity (PSR sort gate)” value is listed as “high polyreactivity”.

Take “QVQLVESGGGLVQAGGSLRLSCAASGSTFDGYAMGWYTQAPGKERELVAAISKNGGRTYYADSVKGRFTISRDNAKNTVYLQMNSLKPEDTAVYYCAIDIIKYDYDYWGQGTQVTVSS”: the “polyreactivity (PSR sort gate)” value is reported as “low polyreactivity”.

As to “QVQLVESGGGLVQAGGSLRLSCAASGSTFDHYTMGWYRPAPGKERELVAAINRIGDSTYYADSVKGRFTISRDNAKNTVYLQMNSLKPEDTAVYYCAARHVPRFNKYGYWGQGTQVTVSS”, the “polyreactivity (PSR sort gate)” value was “high polyreactivity”.

In the case of “QVQLVESGGGLVQAGGSLRLSCAASGSTFDINAMGWYRQAPGKERELVAAISWGGGSTYYADSVKGRFTISRDNAKNTVYLQMNSLKPEDTAVYYCAKLKGTQPNRYDYWGQGTQVTVSS”, the “polyreactivity (PSR sort gate)” value is recorded as “low polyreactivity”.

Regarding “QVQLVESGGGLVQAGGSLRLSCAASGSTFDIYAMGWYRQAPGKERELVAAIRYSGGSTYYADSVKGRFTISRDNAKYTVYLQMNSLKPEDTAVYYCAADPYQLWHYYYFGMDYWGQGTEVTVSS”, the “polyreactivity (PSR sort gate)” value is listed as “low polyreactivity”.

As for “QVQLVESGGGLVQAGGSLRLSCAASGSTFDIYAMGWYRQAPGKERELVAVISGGDGSTYYADSVKGRFTISRDNAKNTVYLQMNSLKPEDTAVYFCAADYISPGYWDGEYDCWGQGTQVTVSS”, the “polyreactivity (PSR sort gate)” value is reported as “low polyreactivity”.

Consider “QVQLVESGGGLVQAGGSLRLSCAASGSTFDIYAMGWYRQAPGNERELVAAISVSGGSTYYADSVKGRFTIARDNAKNTVDLQMNSLKPEDTAVYYCAAEAYTRFYQQFDYWGQGTQVTVSS”, for which the “polyreactivity (PSR sort gate)” value is “high polyreactivity”.

Take “QVQLVESGGGLVQAGGSLRLSCAASGSTFDKKAMGWYRQAPGKERELVAAITWRGGRTYYADSVKGRFTISRDNAKNTVYLQLNSLKPEDTAVYYCNKVSWEQMDYWGQGTQVTVSS”: the “polyreactivity (PSR sort gate)” value is on record as “low polyreactivity”.

For “QVQLVESGGGLVQAGGSLRLSCAASGSTFDKNAMGWYRQAPGKERELVDAISIGVSTNYADSVKGRFTISRDNAKNTVYLQMNSLKPEDTAVYYCAADLFFGAETVYYDKFDYWGQGTQVTVSS”, the “polyreactivity (PSR sort gate)” value was “low polyreactivity”.

“QVQLVESGGGLVQAGGSLRLSCAASGSTFDNYAMGWNRQAPGKERELVADITWSGGSTYYADSVKGRFTSSRDNAKNTVYLQMNSLKPEDSAVYYCNSAGYYTKYDYWGQGTQVTVSS”: the “polyreactivity (PSR sort gate)” value is reported as “low polyreactivity”.

Take “QVQLVESGGGLVQAGGSLRLSCAASGSTFDPNAMGWYRHAPGKERELVAAIDSGGSSYYADSVKGRFTISRDNAKYTVYLQMNSLKPEDTAVYYCASNIVGRSPYDSNYDFEYWGQGTQVTVSS”: the “polyreactivity (PSR sort gate)” value is “low polyreactivity”.

With “QVQLVESGGGLVQAGGSLRLSCAASGSTFDPNAMGWYRQAPGKERELVAVIDSGDGTTNYADSVKGRFTISRDNAKNTVYLQMNSLKPEDTAVYYCNKDTLVYGYVQDYEYWGQGTQVTVSS”, the “polyreactivity (PSR sort gate)” value is listed as “low polyreactivity”.

As for “QVQLVESGGGLVQAGGSLRLSCAASGSTFDPNAMGWYRQAPGKETELVAAIDSGGSTYYADSVKGRFTISRDNAKNTVYLQMNSLKPEDTAVYYCATKQPTWVPRVIISYTKFDYWGQGTQVTVSS”, the “polyreactivity (PSR sort gate)” value is recorded as “low polyreactivity”.

Take “QVQLVESGGGLVQAGGSLRLSCAASGSTFDPYAMGCYRQAAGKEREFVAYIDSSVGSTFYADSVKGRFTISRDNAKNTVYLQMNSLKPEDTAVYYCAAASRVAKGRWRLYDYWGQGTQVTVSS”: the “polyreactivity (PSR sort gate)” value was “high polyreactivity”.

Turning to “QVQLVESGGGLVQAGGSLRLSCAASGSTFDPYGMGWYRQAPGKERELVAAITSSGRTNYADSVKGRFTISRDNAKNTVYLQMKSLKPEDTAVYYCATRKERYFYRGYEYWGQGTQVTVSS”, the “polyreactivity (PSR sort gate)” value is recorded as “low polyreactivity”.

As for “QVQLVESGGGLVQAGGSLRLSCAASGSTFDQNTMGWYREAPGKERELVASITGGDSTNYADSVKGRFTISRDNAKNTVYLQMNSLKPEDTAVYYCAADKLYQPGIGDDYWGQGTQVTVSS”, the “polyreactivity (PSR sort gate)” value was “low polyreactivity”.

Take “QVQLVESGGGLVQAGGSLRLSCAASGSTFDSNAMGWYRQAPGKERELVAAIRFSGGSTNYADSVKGRFTISRDKAKNTVYLQINSLKPEDTAVYYCAARYPNLRSRWYYYWGQGPQVTVSS”: the “polyreactivity (PSR sort gate)” value is recorded as “high polyreactivity”.

As to “QVQLVESGGGLVQAGGSLRLSCAASGSTFDSYAMGWSRQAPGKERELVARINDSGGSTYYADSVKGRFTISRDNAKNTVYLHMNSLKPEDTAVYYCNAYSWYFLPNMDYWGQGTQVTVSS”, the “polyreactivity (PSR sort gate)” value was “low polyreactivity”.

Take “QVQLVESGGGLVQAGGSLRLSCAASGSTFDSYAMGWYRQAPGKERELVAAISSGGSTNYADSVKGRFTISRDNAKNTVYLQMNSLKPEDTAVYYCAAYGGHIWWLYRHYGYDYWGQGTQVTVSS”: the “polyreactivity (PSR sort gate)” value is “low polyreactivity”.

In the case of “QVQLVESGGGLVQAGGSLRLSCAASGSTFDSYAMGWYRQAPGKERELVAAITNGGSTYYADSVKGRFTISRDNAKNTVYLQMNSLKPEDTAVYYCATDDYLLDYLYDYWGQGTQVTVSS”, the “polyreactivity (PSR sort gate)” value is given as “low polyreactivity”.

“QVQLVESGGGLVQAGGSLRLSCAASGSTFDSYAMGWYRQAPGKERELVAVINSGGSTNYADSVKGRFTISRDNAKNTVYLLMNSLKPEDTAVYYCSAEERYRWHVVGWGYWYDYWGQGTQVTVSS”: the “polyreactivity (PSR sort gate)” value is on record as “low polyreactivity”.

Turning to “QVQLVESGGGLVQAGGSLRLSCAASGSTFDSYAMGWYSQAPGKERELVAAITYSGGRTYYADSVKGRFTISRDNAKNTVYLQMNSLKPEDTAVYYCAATGVFRDEYWGQGTQVTVSS”, the “polyreactivity (PSR sort gate)” value is “low polyreactivity”.

Consider “QVQLVESGGGLVQAGGSLRLSCAASGSTFDSYARVWYRQAPGKETELVARISIVGSTNYADSVKGRFTISRANAKNTVYLQMNCLKPDDTAVYYCAADRDWQYSFRHSVYGYDYDYWGQGTLVTVSS”, for which the “polyreactivity (PSR sort gate)” value was “low polyreactivity”.

Turning to “QVQLVESGGGLVQAGGSLRLSCAASGSTFDTNAMGWYRQAPGKERELVAAISASGGSTYYADSVKGRFTISRDNAKNTVYLQMNSLKPEDTAVYDCAAKTRGQQRKFDYWGQGSQVTVSS”, the “polyreactivity (PSR sort gate)” value is “high polyreactivity”.

For the sequence “QVQLVESGGGLVQAGGSLRLSCAASGSTFDTNTMGWYIQAPGKERELVAAITSSGTSTSYADSVKGRFTISRDNAKNTVYLQMNSLKPEDTAVYYCAALRPGGGDYSDYDYWGQGTQVSVSS”, the “polyreactivity (PSR sort gate)” value is listed as “low polyreactivity”.

In the case of “QVQLVESGGGLVQAGGSLRLSCAASGSTFDTYAMGWYRQAPGKEREFVATITGSGGSTYYADSVKVRFTITRDNAKNTVYLQMNSLKPEDTAVYYCNAETYIDLRGKFPVEYDYWGQGTQVTVSS”, the “polyreactivity (PSR sort gate)” value was “low polyreactivity”.

Consider “QVQLVESGGGLVQAGGSLRLSCAASGSTFDTYAMGWYRQAPGKERELVAAISRSGTSTYYADSVKGRFTISRDNAKNTVYLQMISLKPEDTAVYYCDKDAGLQKYHHDYWGQGTQVTVSS”, for which the “polyreactivity (PSR sort gate)” value is recorded as “low polyreactivity”.

For the sequence “QVQLVESGGGLVQAGGSLRLSCAASGSTFDTYAMGWYRQAPGKERELVAAISRSGTSTYYADSVKGRFTISRDNAKNTVYLQMKSLKPEDTAVYYCAAYGPRVNGEIGREYYYWGQGTQVTVSS”, the “polyreactivity (PSR sort gate)” value was “low polyreactivity”.

In the case of “QVQLVESGGGLVQAGGSLRLSCAASGSTFDVNAMGSYRQAPGKERELVAAISWNSGSTYYADSVKGRFTISRDNAKNTVYLQMNSLKPEDTAVYYCAATYGTGRRSKYGYWGQGTQVTVSS”, the “polyreactivity (PSR sort gate)” value was “high polyreactivity”.

Turning to “QVQLVESGGGLVQAGGSLRLSCAASGSTFDVNTMGWYRQAPGTERELVAAIRLRGGSTYYADSVKGRFTISRDNAKNTVYLQMNSLKPEDTAVYYCAADYTLIYDYWGQGTQVTVSS”, the “polyreactivity (PSR sort gate)” value is recorded as “low polyreactivity”.

As to “QVQLVESGGGLVQAGGSLRLSCAASGSTFDVYVMGWYRQAPGKERELVAAISSGDDTNYADSVKGRFTISRDNAKNTVYLQMNSLKPEDTAVYYCAAAYYYYVSGWFDYWGQGTQVTVSS”, the “polyreactivity (PSR sort gate)” value is “low polyreactivity”.

Take “QVQLVESGGGLVQAGGSLRLSCAASGSTFDWYAMGWYRQAPGKDRELVAAISSDDSTYYADSVKGRFTISRDNAKNTVYLQMNSLIPEDTAVYYCAVDVYSDYGDYGYWGQGTQVTVSS”: the “polyreactivity (PSR sort gate)” value is “low polyreactivity”.

Take “QVQLVESGGGLVQAGGSLRLSCAASGSTFDYNAMGWYRQAPGKERELVAAISSGSRTNYADSVKGRFTISRDNAKNTVYLQMNSLKPEDTAVYYCAAKAYFYRRTQSRFSLYYYWGQGTQVTVSS”: the “polyreactivity (PSR sort gate)” value was “high polyreactivity”.

Consider “QVQLVESGGGLVQAGGSLRLSCAASGSTFDYNTMGWYRQAPGKERELVAAISESGGSTYYADSVKGRFTISRDNAKNTVYLQMNSLKPEDTAVSYCATDDFGGYFGEYDYWGQGTQVTVSS”, for which the “polyreactivity (PSR sort gate)” value was “low polyreactivity”.

As for “QVQLVESGGGLVQAGGSLRLSCAASGSTFDYYAMGWSRQAPGKERELVAGITGGGSTYYADSVKGRFTISRDNAKNTVYLQMNSLKPEDTAVYYCNAGPALRYDYWGQGTQVTVSS”, the “polyreactivity (PSR sort gate)” value is on record as “low polyreactivity”.

Regarding “QVQLVESGGGLVQAGGSLRLSCAASGSTFDYYAMGWYRQAPAKERELVAVISRSGGSTYYADSVKGRFTISRDNAKNTVYLQMNSLKPEDTAVYYCAKSRPSKYDYWGQGTQVTVSS”, the “polyreactivity (PSR sort gate)” value is reported as “high polyreactivity”.
